PMC2938230 (Nucleic Acids Research, 2010)

Target: T1, GAL4 DBD-hRARγ (human, UniProt P13631 1-454)
T1 sequence (looked up): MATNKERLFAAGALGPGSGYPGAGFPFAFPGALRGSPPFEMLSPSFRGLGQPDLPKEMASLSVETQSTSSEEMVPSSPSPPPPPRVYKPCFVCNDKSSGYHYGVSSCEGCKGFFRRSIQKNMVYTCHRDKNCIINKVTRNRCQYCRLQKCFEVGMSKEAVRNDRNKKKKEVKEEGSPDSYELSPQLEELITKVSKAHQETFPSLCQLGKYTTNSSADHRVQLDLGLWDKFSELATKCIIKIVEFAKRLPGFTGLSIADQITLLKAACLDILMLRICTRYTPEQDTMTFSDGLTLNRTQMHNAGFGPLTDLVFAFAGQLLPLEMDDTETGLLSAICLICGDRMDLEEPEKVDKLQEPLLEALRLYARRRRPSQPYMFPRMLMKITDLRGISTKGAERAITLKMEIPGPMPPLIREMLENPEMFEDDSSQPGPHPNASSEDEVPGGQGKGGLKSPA
Assay: two-hybrid

fold interaction relative to RARα: 3 fold
B1: GAL4 AD-hADA3 (pACT2) (natural protein, human, UniProt O75528-1 1-432, looked up)
chain: MSELKDCPLQFHDFKSVDHLKVCPRYTAVLARSEDDGIGIEELDTLQLELETLLSSASRRLRVLEAETQILTDWQDKKGDRRFLKLGRDHELGAPPKHGKPKKQKLEGKAGHGPGPGPGRPKSKNLQPKIQEYEFTDDPIDVPRIPKNDAPNRFWASVEPYCADITSEEVRTLEELLKPPEDEAEHYKIPPLGKHYSQRWAQEDLLEEQKDGARAAAVADKKKGLMGPLTELDTKDVDALLKKSEAQHEQPEDGCPFGALTQRLLQALVEENIISPMEDSPIPDMSGKESGADGASTSPRNQNKPFSVPHTKSLESRIKEELIAQGLLESEDRPAEDSEDEVLAELRKRQAELKALSAHNRTKKHDLLRLAKEEVSRQELRQRVRMADNEVMDAFRKIMAARQKKRTPTKKEKDQAWKTLKERESILKLLDG
